Entries after “also recorded” stand apart in the source; their conditions may differ.

This test concerns intestinal stem cells (ISCs). The test can be described thus: ISC colony formation efficiency / ISC expansion in hydrogels. The format is cell-based, mouse. The settings on record: PEG-RGD, Wnt3a-containing medium. Here is the method: Freshly isolated crypts or single cells from dissociated colonies were added to the Matrigel or hydrogels precursor solution and cast in 20-μL droplets at the bottom of wells in 24-well plate. […] For single cell culture, thiazovivin (2.5 μM; Stemgent) and Jagged-1 peptide ([…]; Anaspec) was included in the medium during the first two days. Broad spectrum protease inhibitor, GM6001, was added to the medium while embedding the cells in PEG hydrogels. Every two days the growth factors were replenished and the full medium was changed.
To quantify the colony formation efficiency of single embedded ISCs, phase contrast z-stacks spanning the entire thickness of the cell-laden Matrigel or PEG gels were collected (Zeiss Axio Observer Z1) at 5 different locations within the gels. The Cell Counter plugin in ImageJ (NIH) was used to quantify the fraction of cells which had formed colonies at day 4 after seeding. To assess the viability of intestinal tissue fragments embedded in PEG, phase contrast images of the entire gel were collected. The fraction of viable tissues was estimated based upon the epithelial morphology: tissues that featured an epithelial monolayer surrounding a central lumen after 24 h of embedding were deemed viable.

B1: Wnt3a: recombinant Wnt3a (protein, UniProt P56704 19-352, looked up)
Protein Wnt-3a: SYPIWWSLAVGPQYSSLGSQPILCASIPGLVPKQLRFCRNYVEIMPSVAEGIKIGIQECQHQFRGRRWNCTTVHDSLAIFGPVLDKATRESAFVHAIASAGVAFAVTRSCAEGTAAICGCSSRHQGSPGKGWKWGGCSEDIEFGGMVSREFADARENRPDARSAMNRHNNEAGRQAIASHMHLKCKCHGLSGSCEVKTCWWSQPDFRAIGDFLKDKYDSASEMVVEKHRESRGWVETLRPRYTYFKVPTERDLVYYEASPNFCEPNPETGSFGTRDRTCNVSSHGIDGCDLLCCGRGHNARAERRREKCRCVFHWCCYVSCQECTRVYDVHTCK
Consider B1, for which the “ISC culture with Wnt3a instead of CHIR99021 and valproic acid” value is “successfully cultured; also recorded: can successfully replace CHIR99021 and VPA”.

For the origin of these results see patent US10934529B2, “Three dimensional hydrogels for culturing organoids” (Ecole Polytechnique Fèdèrale de Lausanne, priority 2015, dated 2021).
